Test results published in US8614369B2, “Enzymes involved in triterpene synthesis” (Plant Bioscience Limited, priority 2007, dated 2013).

Assay: Activity of AsGT2 towards salicylate (radioactive TLC assay and LC-MS assay)
Assay type: biochemical
Design: key: A “+” denotes activity
Details: acceptor substrate salicylate; sugar donor L-arabinose; recombinant AsGT2 expressed in E. coli
Method: Radioactive assays with a complex acceptor substrate were used to detect low level activity with pure or enriched substrates. The assays contained 4 μl ^14C-UDP-glucose, 25 μl 50 mM potassium phosphate buffer pH 7.6, 0.25 μl 100 mM acceptor substrate in DMSO, 5 μl of the dialyzed protein preparation, and 3 μl 10 mM DTT. The reaction proceeded at 28 degrees Celsius for 2.5 hours shaking gently before stopping by the addition of 50 μl chloroform:methanol (2:1). The aqueous phase was extracted three more times with chloroform methanol and the solvent phases were pooled. The extracts were dried down at 60 degrees Celsius and resuspended in 40 μl of chloroform:methanol. The aqueous phase was dried down also and resuspended in water. A silica-gel TLC plate was loaded with 15 μl of the extracts and chromatographed with chloroform:methanol:water (13:6:1) against standards.
The acceptor substrates tested were β-amyrin-arabinoside, benzoic acid and salicylic acid. The sugars donors tested were D-glucose and L-arabinose.
To confirm the chemical structures of the products visualized by the radioactive assay a non-radioactive LC-MS assay was developed. […] Reactions were stopped by the addition of 100% methanol, which was then evaporated from the reaction at 50 degrees Celsius, and were analysed by LC/MS/MS using reversed-phase chromatography. […]

B1: AsGT2: family 1 glucosyltransferase from Avena strigosa (SEQ ID NO:6), expressed in E. coli and purified (protein, listed as Avena strigosa)
chain: MGAEWEHVSDIHVLLLPYPVQGHINPMLQFGKRLAHIGGVGVRCTLAITPYLLRQCQDPCPGAVHLVEISDGFDSAGFEEVGDVAAYLAGMESAGSRTLDELLRSEAEKGRPIHAVVYDAFLQPWVPRVARLHGAACVSFFTQAAAVNVAYSRRVGKIEEGLPAGFEAEDLPTFLTLPLPYQDMLLSQFVGLDAVDHVLVNSFHELQPQESAYMESTWGAKTVGPTVPSAYLDKRITDDVSYGFHLYTPMTATTKAWLDAQPPRSVTYVSFGSMATPGPTEMAEMAEGLHSSGKAFLWVVRASEASKIPDGFQERVGGRGLVVTWVAQLEVLAHGAIGCFVTHCGWNSTMEALGAGVPMVAVPQWSDQPTNAKFVEDVWCVGVRARRDPEGVVRREELERCIREVTGDDKYACNALDWKEKSKRAMSQGGSSDMNITEFLQALRRSRKSYEAKPIEPLLVGLDA
For B1, which “Activity of AsGT2 towards Salicylate, L-Ara” value is on record?
The value was “+”.
